Experimental data: US5863888A, “Human Bek Fibroblast growth factor receptor” (Rhone-Poulenc Rorer Pharmaceuticals Inc., priority 1995, dated 1999)
Read-outs that look alike come from different tables or passages of the source.

What was measured:
bek = test: Saturation (equilibrium) binding of [125I]FGF to bek-overexpressing cells, Scatchard analysis; design: species or system human; conditions: for binding of [125I]aFGF and [125I]bFGF at saturation to bek in presence of unlabelled ligand: 100 fold molar excess of unlabelled ligand
Protocol: (§1) Bovine derived aFGF, purified as previously described (Burgess, et al., J. Biol. Chem., 260: 11389-11392 (1985)), human recombinant bFGF (a kind gift of Dr. Moscatelli) and human recombinant kFGF (a kind gift of Dr. Claudio Basilico) were radioiodinated using the protocol for Enzymobeads (BioRad). The specific activity of the radiolabelled ligand was determined by radioisotope dilution using the respective unlabelled competitsr. The concentrations of the unlabelled ligands were determined by amino acid analysis (Jaye, et al., 1987 supra). The specific activity of the different preparations of [^125 I]aFGF varied between 130,000-760,000 cpm/ng and the specific activity for [^125 I]bFGF between 50,000-500,000 cpm/ng. The specific activity of [^125 I]kFGF varied from 50,000-200,000 cpm/ng. The binding assay was performed as follows: Fibronectin-coated 24 well dishes containing 1×10^5 cells/well were placed on ice, and the wells were rinsed twice with cold binding buffer (DMEM, 1 mg/ml BSA, 5 U/ml heparin, 50 mM Hepes, pH 7.4). Dishes were incubated on ice with 1 ml of ice cold binding buffer for 20 minutes, followed by 2 hours at 4° C. with serial dilutions of the [^125 I]FGF in cold binding buffer without heparin. Nonspecific binding was obtained using the same serial dilutions but in the presence of 100 fold molar excess of non-radioactive aFGF. After incubation, the cells were placed on-ice and rinsed twice with ice cold binding buffer minus heparin and then solubilized in 0.3N NaOH 37° C., 15 minutes. When [^125 I]bFGF was used the cells were placed on ice after incubation, washed three times with PBS, twice with 1 ml 2M NaCl in 20 mM Hepes, pH 7.5 and twice with 1 ml 2M NaCl in 20 mM sodium acetate, pH 4.0. The radioactivity released by the acid 2M NaCl wash represents specific binding to high affinity sites (Moscatelli, J. Cell. Physiol., 131: 123-130 (1987)). Acidic and basic FGF were radioiodinated and purified on heparin-Sepharose as described above. The dissociation constants of bek and fiq for aFGF and bFGF were established by saturation binding analysis of the overexpressing cell lines with the iodinated ligands. Binding of both aFGF and bFGF to bek and flg was specific and saturable (FIG. 6A, inserts). […] Also kFGF binds to bek with similar affinity as does bFGF but binds to flg with 4-foldless avidity than does bFGF. The data from additional experiments yield apparent Kds of aFGF for flg in the range of 20-80 pM and for bek in the range of 40-100 pM. […] The range of values probably arises from determinations of the specific activity and biological integrity of different preparations of the iodinated ligands. […] These conclusions were supported by competition (isotope dilution) experiments in which increasing amounts of nonradioactive aFGF or bFGF competed for binding with [^125 I]aFGF and [^125 I]bFGF to flg- and bek-overexpressing cells.

flg = test: Saturation (equilibrium) binding of [125I]FGF to flg-overexpressing cells, Scatchard analysis; design: species or system human; conditions: for binding of [125I]aFGF and [125I]bFGF at saturation to flg in presence of unlabelled ligand: 100 fold molar excess of unlabelled ligand
Protocol: as §1

[1] = data from additional experiments, read-out: apparent Kd for bek, range
[2] = typical experiment, Scatchard analysis, bek-overexpressing NIH 3T3 cells (bek8; bek13 for kFGF), 4° C., read-out: affinity (dissociation constant) for bek
[3] = within any single experiment, compared to aFGF
[4] = data from additional experiments, read-out: apparent Kd for flg, range
[5] = typical experiment, Scatchard analysis, flg-overexpressing NIH 3T3 cells (flg26), 4° C., read-out: affinity (dissociation constant) for flg

| Molecule | binding of [125I]aFGF and [125I]bFGF at saturation to bek in presence of unlabelled ligand (bek) | Kd (bek; [1]) | Kd (bek; [2]) | fold lower affinity for bek compared to aFGF (bek; [3]) | binding of [125I]aFGF and [125I]bFGF at saturation to flg in presence of unlabelled ligand (flg) | Kd (flg; [4]) | Kd (flg; [5]) | fold lower affinity for flg compared to aFGF (flg; [3]) | fold less avidity for flg than bFGF (flg; compared to bFGF) |
| --- | --- | --- | --- | --- | --- | --- | --- | --- | --- |
| bFGF: human recombinant basic fibroblast growth factor, radioiodinated for binding | completely eliminated | 80 to 150 pM | 82 pM | approximately 2 fold | completely eliminated | 50 to 150 pM | 47 pM | approximately 2 fold | – |
| kFGF: human recombinant kFGF, member of the FGF family, radioiodinated for binding (protein, UniProt P08620 31-206, looked up, radioiodinated) Fibroblast growth factor 4: APTAPNGTLEAELERRWESLVALSLARLPVAAQPKEAAVQSGAGDYLLGIKRLRRLYCNVGIGFHLQALPDGRIGGAHADTRDSLLELSPVERGVVSIFGVASRFFVAMSSKGKLYGSPFFTDECTFKEILLPNNYNAYESYKYPGMFIALSKNGKTKKGNRVSPTMKVTHFLPRL | – | – | 80 pM | – | – | – | 320 pM | – | 4 fold |
| aFGF: Bovine derived acidic fibroblast growth factor, purified, radioiodinated for binding (protein, UniProt P03968 16-155, looked up, radioiodinated) Fibroblast growth factor 1: FNLPLGNYKKPKLLYCSNGGYFLRILPDGTVDGTKDRSDQHIQLQLCAESIGEVYIKSTETGQFLAMDTDGLLYGSQTPNEECLFLERLEENHYNTYISKKHAEKHWFVGLKKNGRSKLGPRTHFGQKAILFLPLPVSSD | completely eliminated | 40 to 100 pM | 47 pM | – | completely eliminated | 20 to 80 pM | 24 pM | – | – |
